According to patent US20070254830A1 (UNIVERSITY OF TOKYO, published 2007):

Biological target: T1, Myc/His-tagged C20orf20 (Homo sapiens (Human), UniProt Q9NV56 1-204)
T1 construct: Expressed in transfected COS7, SW480, HEK293 or HEK293F cells from pcDNA3.1Myc/His-C20orf20; also called myc-tagged C20orf20; pcDNA3.1Myc/His-C20orf20; not shown: Myc/His tag from the pcDNA3.1Myc/His vector
Assay: reciprocal co-immunoprecipitation (anti-HA IP / anti-myc blot and anti-myc IP / anti-HA blot) from co-transfected COS7 cells
Experimental: The entire coding region of p120 was amplified by RT-PCR and cloned into pCAGGS-HA vector. The primer sequences used for the amplification were 5′-[…]-3′ (SEQ ID NO.5) and 5′-[…]-3′ (SEQ ID NO.6). We transfected COS7 cells with pcDNA3.1Myc/His-C20orf20, pCAGGS-HA-p120 or their combination, and performed immunoprecipitation assay using anti-Myc or anti-HA antibody. Cells were washed with PBS and lysed in TNE buffer containing 150 mM NaCl, 0.5% NP40, 10 mM Tris-HCl (pH7.8), supplemented with a Protease Inhibitor Cocktail 3 (Roche). In a typical immunoprecipitation reaction, 400 μg of whole-cell extract was incubated with 1 μg of anti-Myc (Santa Cruz) or anti-HA antibody (Roche), and 20 μl of protein G Sepharose beads (Zymed) at 4° C. for 2 hr. Beads were washed four times in 1 ml of TNE buffer and proteins bound to the beads were eluted by boiling in Laemmli sample buffer. The precipitated protein was separated by SDS-PAGE and immunoblot analysis was carried out using with either rat anti-HA antibody or mouse anti-Myc antibody, respectively.

T1 sequence (Q9NV56 whole entry): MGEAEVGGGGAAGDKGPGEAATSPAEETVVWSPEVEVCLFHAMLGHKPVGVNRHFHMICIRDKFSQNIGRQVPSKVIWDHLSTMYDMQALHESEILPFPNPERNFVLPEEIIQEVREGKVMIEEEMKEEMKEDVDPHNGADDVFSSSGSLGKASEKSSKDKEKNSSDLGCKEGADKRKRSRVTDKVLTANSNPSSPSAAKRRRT

B1: HA-tagged p120 (other)
chain: MRSGDQNWVSVSRAIKPFAEPGRPPDWFSQKHCASQYSELLETTETPKRKRGEKGEVVETVEDVIVRKLTAERVEELKKVIKETQERYRRLKRDAELIQAGHMDSRLDELCNDIATKKKLEEEEAEVKRKATDAAYQARQAVKTPPRRLPTVMVRSPIDSASPGGDYPLGDLTPTTMEEATSGVTPGTLPSTPVTSFPGIPDTLPPGSAPLEAPMTPVTDDSPQKKMLGQKATPPPSPLLSELLKKGSLLPTSPRLVNESEMAVASGHLNSTGVLLEVGGVLPMIHGGEIQQTPNTVAASPAASGAPTLSRLLEAGPTQFTTPLASFTTVASEPPVKLVPPPVESVSHATIVMMPALPAPSSAPAVSTTESVAPVSQPDNCVPMEAVGDPHTVTVSMDSSEISMIINSIKEECFRSGVAEAPVGSKAPSIDGKEELDLAEKMDIAVSYTGEELDFETVGDIIAIIEDKVDDHPEVLDVAAVEAALSFCEENDDPQSLPGPWEHPIQQERDKPVPLPAPEMTVKQERLDFEETENKGIHELVDIREPSAEIKVEPAEPEPVISGAEIVAGVVPATSMEPPELRSQDLDEELGSTAAGEIVEADVAIGKGDETPLTNVKTEASPESMLSPSHGSNPIEDPLEAETQHKFEMSDSLKEESGTIFGSQIKDAPGEDEEEDGVSEAASLEEPKEEDQGEGYLSEMDNEPPVSESDDGFSIHNATLQSHTLADSIPSSPASSQFSVCSEDQEAIQAQKIWKKAIMLVWRAAANHRYANVFLQPVTDDIAPGYHSIVQRPMDLSTIKKNIENGLIRSTAEFQRDIMLMFQNAVMYNSSDHDVYHMAVEMQRDVLEQIQQFLATQLIMQTSESGISAKSLRGRDSTRKQDASEKDSVPMGSPAFLLSLFDGGTRGRRCAIEADMKMKK
notes: expressed in transfected COS7, SW480, HEK293 or HEK293F cells; also called SMAP; not shown: HA tag from the pCAGGS-HA vector
binding result: binds
